# B1: Growth/differentiation factor 5 (Homo sapiens), P43026 (parent)
# chain: MRLPKLLTFLLWYLAWLDLEFICTVLGAPDLGQRPQGTRPGLAKAEAKERPPLARNVFRPGGHSYGGGATNANARAKGGTGQTGGLTQPKKDEPKKLPPRPGGPEPKPGHPPQTRQATARTVTPKGQLPGGKAPPKAGSVPSSFLLKKAREPGPPREPKEPFRPPPITPHEYMLSLYRTLSDADRKGGNSSVKLEAGLANTITSFIDKGQDDRGPVVRKQRYVFDISALEKDGLLGAELRILRKKPSDTAKPAAPGGGRAAQLKLSSCPSGRQPAALLDVRSVPGLDGSGWEVFDIWKLFRNFKNSAQLCLELEAWERGRAVDLRGLGFDRAARQVHEKALFLVFGRTKKRDLFFNEIKARSGQDDKTVYEYLFSQRRKRRAPLATRQGKRPSKNLKARCSRKALHVNFKDMGWDDWIIAPLEYEAFHCEGLCEFPLRSHLEPTNHAVIQTLMNSMDPESTPPTCCVPTRLSPISILFIDSANNVVYKQYEDMVVESCGCR
# Variants of: B1
# Conditions: with bmr1b_human BMPR1B
row,Variant,effect of a mutation on the interaction
1,MRLPKLLTFLLWYLAWLDLEFICTVLGAPDLGQRPQGTRPGLAKAEAKERPPLARNVFRPGGHSYGGGATNANARAKGGTGQTGGLTQPKKDEPKKLPPRPGGPEPKPGHPPQTRQATARTVTPKGQLPGGKAPPKAGSVPSSFLLKKAREPGPPREPKEPFRPPPITPHEYMLSLYRTLSDADRKGGNSSVKLEAGLANTITSFIDKGQDDRGPVVRKQRYVFDISALEKDGLLGAELRILRKKPSDTAKPAAPGGGRAAQLKLSSCPSGRQPAALLDVRSVPGLDGSGWEVFDIWKLFRNFKNSAQLCLELEAWERGRAVDLRGLGFDRAARQVHEKALFLVFGRTKKRDLFFNEIKARSGQDDKTVYEYLFSQRRKRRAPLATRQGKRPSKNLKARCSRKALHVNFKDMGWDDWIIAPLEYEAFHCEGLCEFPLLSHLEPTNHAVIQTLMNSMDPESTPPTCCVPTRLSPISILFIDSANNVVYKQYEDMVVESCGCR [R438L],increasing interaction

# Variants of: B1
# Conditions: with bmpr2_human BMPR2, Q13873
# Chain of bmpr2_human BMPR2, Q13873 (Q13873 whole entry): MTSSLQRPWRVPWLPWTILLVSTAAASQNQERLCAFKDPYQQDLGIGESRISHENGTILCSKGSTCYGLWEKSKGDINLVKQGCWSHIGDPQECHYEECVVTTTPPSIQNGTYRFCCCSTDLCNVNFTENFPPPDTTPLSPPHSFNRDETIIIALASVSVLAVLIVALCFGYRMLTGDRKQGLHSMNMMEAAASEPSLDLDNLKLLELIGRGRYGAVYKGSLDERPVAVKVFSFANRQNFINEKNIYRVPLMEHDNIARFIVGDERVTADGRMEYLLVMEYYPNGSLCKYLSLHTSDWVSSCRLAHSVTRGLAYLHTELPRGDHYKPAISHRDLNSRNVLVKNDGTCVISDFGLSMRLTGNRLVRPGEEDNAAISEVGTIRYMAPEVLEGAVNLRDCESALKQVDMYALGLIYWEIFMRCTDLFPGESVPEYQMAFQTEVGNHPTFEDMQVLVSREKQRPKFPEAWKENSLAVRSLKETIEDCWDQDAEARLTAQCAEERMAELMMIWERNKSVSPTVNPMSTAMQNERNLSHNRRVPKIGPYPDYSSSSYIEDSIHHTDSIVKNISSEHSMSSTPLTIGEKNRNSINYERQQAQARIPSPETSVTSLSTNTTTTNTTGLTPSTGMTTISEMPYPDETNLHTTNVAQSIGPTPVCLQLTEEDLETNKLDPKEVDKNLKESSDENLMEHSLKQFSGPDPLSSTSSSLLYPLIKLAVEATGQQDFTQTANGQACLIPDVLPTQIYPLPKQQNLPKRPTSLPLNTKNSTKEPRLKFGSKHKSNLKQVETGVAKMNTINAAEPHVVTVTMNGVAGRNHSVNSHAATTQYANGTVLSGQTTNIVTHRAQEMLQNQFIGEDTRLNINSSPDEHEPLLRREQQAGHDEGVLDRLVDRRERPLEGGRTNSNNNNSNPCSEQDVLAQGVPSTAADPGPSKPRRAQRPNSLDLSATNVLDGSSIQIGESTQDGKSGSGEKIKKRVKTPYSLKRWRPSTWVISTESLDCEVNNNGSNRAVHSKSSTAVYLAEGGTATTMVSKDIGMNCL
row,Variant,effect of a mutation on the interaction
1,MRLPKLLTFLLWYLAWLDLEFICTVLGAPDLGQRPQGTRPGLAKAEAKERPPLARNVFRPGGHSYGGGATNANARAKGGTGQTGGLTQPKKDEPKKLPPRPGGPEPKPGHPPQTRQATARTVTPKGQLPGGKAPPKAGSVPSSFLLKKAREPGPPREPKEPFRPPPITPHEYMLSLYRTLSDADRKGGNSSVKLEAGLANTITSFIDKGQDDRGPVVRKQRYVFDISALEKDGLLGAELRILRKKPSDTAKPAAPGGGRAAQLKLSSCPSGRQPAALLDVRSVPGLDGSGWEVFDIWKLFRNFKNSAQLCLELEAWERGRAVDLRGLGFDRAARQVHEKALFLVFGRTKKRDLFFNEIKARSGQDDKTVYEYLFSQRRKRRAPLATRQGKRPSKNLKARCSRKALHVNFKDMGWDDWIIAPLEYEAFHCEGLCEFPLLSHLEPTNHAVIQTLMNSMDPESTPPTCCVPTRLSPISILFIDSANNVVYKQYEDMVVESCGCR [R438L],increasing interaction

# Variants of: B1
# Conditions: with bmr1a_human BMPR1A
row,Variant,effect of a mutation on the interaction
1,MRLPKLLTFLLWYLAWLDLEFICTVLGAPDLGQRPQGTRPGLAKAEAKERPPLARNVFRPGGHSYGGGATNANARAKGGTGQTGGLTQPKKDEPKKLPPRPGGPEPKPGHPPQTRQATARTVTPKGQLPGGKAPPKAGSVPSSFLLKKAREPGPPREPKEPFRPPPITPHEYMLSLYRTLSDADRKGGNSSVKLEAGLANTITSFIDKGQDDRGPVVRKQRYVFDISALEKDGLLGAELRILRKKPSDTAKPAAPGGGRAAQLKLSSCPSGRQPAALLDVRSVPGLDGSGWEVFDIWKLFRNFKNSAQLCLELEAWERGRAVDLRGLGFDRAARQVHEKALFLVFGRTKKRDLFFNEIKARSGQDDKTVYEYLFSQRRKRRAPLATRQGKRPSKNLKARCSRKALHVNFKDMGWDDWIIAPLEYEAFHCEGLCEFPLLSHLEPTNHAVIQTLMNSMDPESTPPTCCVPTRLSPISILFIDSANNVVYKQYEDMVVESCGCR [R438L],increasing interaction

# Variants of: B1
# Conditions: with bmpr2_human BMPR2, Q13873
# Remark: another data set of the same source
row,Variant,effect of a mutation on the interaction
1,MRLPKLLTFLLWYLAWLDLEFICTVLGAPDLGQRPQGTRPGLAKAEAKERPPLARNVFRPGGHSYGGGATNANARAKGGTGQTGGLTQPKKDEPKKLPPRPGGPEPKPGHPPQTRQATARTVTPKGQLPGGKAPPKAGSVPSSFLLKKAREPGPPREPKEPFRPPPITPHEYMLSLYRTLSDADRKGGNSSVKLEAGLANTITSFIDKGQDDRGPVVRKQRYVFDISALEKDGLLGAELRILRKKPSDTAKPAAPGGGRAAQLKLSSCPSGRQPAALLDVRSVPGLDGSGWEVFDIWKLFRNFKNSAQLCLELEAWERGRAVDLRGLGFDRAARQVHEKALFLVFGRTKKRDLFFNEIKARSGQDDKTVYEYLFSQRRKRRAPLATRQGKRPSKNLKARCSRKALHVNFKDMGWDDWIIAPLEYEAFHCEGLCEFPLASHLEPTNHAVIQTLMNSMDPESTPPTCCVPTRLSPISILFIDSANNVVYKQYEDMVVESCGCR [R438A],decreasing interaction

# Variants of: B1
# Conditions: with bmr1b_human BMPR1B
# Remark: another data set of the same source
row,Variant,effect of a mutation on the interaction
1,MRLPKLLTFLLWYLAWLDLEFICTVLGAPDLGQRPQGTRPGLAKAEAKERPPLARNVFRPGGHSYGGGATNANARAKGGTGQTGGLTQPKKDEPKKLPPRPGGPEPKPGHPPQTRQATARTVTPKGQLPGGKAPPKAGSVPSSFLLKKAREPGPPREPKEPFRPPPITPHEYMLSLYRTLSDADRKGGNSSVKLEAGLANTITSFIDKGQDDRGPVVRKQRYVFDISALEKDGLLGAELRILRKKPSDTAKPAAPGGGRAAQLKLSSCPSGRQPAALLDVRSVPGLDGSGWEVFDIWKLFRNFKNSAQLCLELEAWERGRAVDLRGLGFDRAARQVHEKALFLVFGRTKKRDLFFNEIKARSGQDDKTVYEYLFSQRRKRRAPLATRQGKRPSKNLKARCSRKALHVNFKDMGWDDWIIAPLEYEAFHCEGLCEFPLRSHPEPTNHAVIQTLMNSMDPESTPPTCCVPTRLSPISILFIDSANNVVYKQYEDMVVESCGCR [L441P],decreasing interaction

# Variants of: B1
# Conditions: with bmpr2_human BMPR2, Q13873
# Remark: another data set of the same source
row,Variant,effect of a mutation on the interaction
1,MRLPKLLTFLLWYLAWLDLEFICTVLGAPDLGQRPQGTRPGLAKAEAKERPPLARNVFRPGGHSYGGGATNANARAKGGTGQTGGLTQPKKDEPKKLPPRPGGPEPKPGHPPQTRQATARTVTPKGQLPGGKAPPKAGSVPSSFLLKKAREPGPPREPKEPFRPPPITPHEYMLSLYRTLSDADRKGGNSSVKLEAGLANTITSFIDKGQDDRGPVVRKQRYVFDISALEKDGLLGAELRILRKKPSDTAKPAAPGGGRAAQLKLSSCPSGRQPAALLDVRSVPGLDGSGWEVFDIWKLFRNFKNSAQLCLELEAWERGRAVDLRGLGFDRAARQVHEKALFLVFGRTKKRDLFFNEIKARSGQDDKTVYEYLFSQRRKRRAPLATRQGKRPSKNLKARCSRKALHVNFKDMGWDDWIIAPLEYEAFHCEGLCEFPLRSHPEPTNHAVIQTLMNSMDPESTPPTCCVPTRLSPISILFIDSANNVVYKQYEDMVVESCGCR [L441P],increasing interaction

# Variants of: B1
# Conditions: with bmr1a_human BMPR1A
# Remark: another data set of the same source
row,Variant,effect of a mutation on the interaction
1,MRLPKLLTFLLWYLAWLDLEFICTVLGAPDLGQRPQGTRPGLAKAEAKERPPLARNVFRPGGHSYGGGATNANARAKGGTGQTGGLTQPKKDEPKKLPPRPGGPEPKPGHPPQTRQATARTVTPKGQLPGGKAPPKAGSVPSSFLLKKAREPGPPREPKEPFRPPPITPHEYMLSLYRTLSDADRKGGNSSVKLEAGLANTITSFIDKGQDDRGPVVRKQRYVFDISALEKDGLLGAELRILRKKPSDTAKPAAPGGGRAAQLKLSSCPSGRQPAALLDVRSVPGLDGSGWEVFDIWKLFRNFKNSAQLCLELEAWERGRAVDLRGLGFDRAARQVHEKALFLVFGRTKKRDLFFNEIKARSGQDDKTVYEYLFSQRRKRRAPLATRQGKRPSKNLKARCSRKALHVNFKDMGWDDWIIAPLEYEAFHCEGLCEFPLRSHPEPTNHAVIQTLMNSMDPESTPPTCCVPTRLSPISILFIDSANNVVYKQYEDMVVESCGCR [L441P],disrupting interaction

# Reference: IntAct's records for PubMed 19229295
